From patent US20040138156A1, “Therapeutic regulation of deoxyribonuclease-1-like-3 activity” (priority 2002, published 2004)
Numbering of substitutions follows the chain as printed. Numbers in names are those of the source. Entries after “also recorded” stand apart in the source; their conditions may differ. Read-outs that look alike come from different tables or passages of the source.

B1: 89I: Murine D1L3 variant of NZ and MRL strains, isoleucine for threonine at residue 89 (protein)
chain: LRLCSFNVRSFGASKKENHEAMDIIVKIIKRCDLILLMEIKDSSNNICPMLMEKLNGNSRRSTIYNYVISSRLGRNTYKEQYAFVYKEKLVSVKTKYHYHDYQDGDTDVFSREPFVVWFHSPFTAVKDFVIVPLHTTPETSVKEIDELVDVYTDVRSQWKTENFIFMGDFNAGCSYVPKKAWQNIRLRTDPKFVWLIGDQEDTTVKKSTSCAYDRIVLCGQEIVNSVVPRSSGVFDFQKAYDLSEEEALDVSDHFPVEFKLQSSRAFTNNRKSVSLKKRKKGNRS
B2: Y261 C: Human DNASE1L3 with Tyr>Cys at aa 261, HA-tagged, expressed in HeLa (protein, UniProt Q13609 21-305, looked up, variant Y261C)
Deoxyribonuclease gamma: MRICSFNVRSFGESKQEDKNAMDVIVKVIKRCDIILVMEIKDSNNRICPILMEKLNRNSRRGITYNYVISSRLGRNTYKEQYAFLYKEKLVSVKRSYHYHDYQDGDADVFSREPFVVWFQSPHTAVKDFVIIPLHTTPETSVKEIDELVEVYTDVKHRWKAENFIFMGDFNAGCSYVPKKAWKNIRLRTDPRFVWLIGDQEDTTVKKSTNCAYDRIVLRGQEIVSSVVPKSNSVFDFQKACKLTEEEALDVSDHFPVEFKLQSSRAFTNSKKSVTLRKKTKSKRS
modifications: HA tag
notes: Human DNASE1L3 with Tyr>Cys at aa 261, HA-tagged, expressed in HeLa
B3: N196K-D3: Murine D1L3 with conserved asparagine 196 changed to lysine; inactive nuclease (protein)
chain: B1 chain with I64T, N171K
B4: D3DCT: Murine D1L3 truncated by a stop codon at Ser-289, lacking the basic C-terminus (289-310) (protein)
chain: LRLCSFNVRSFGASKKENHEAMDIIVKIIKRCDLILLMEIKDSSNNICPMLMEKLNGNSRRSTTYNYVISSRLGRNTYKEQYAFVYKEKLVSVKTKYHYHDYQDGDTDVFSREPFVVWFHSPFTAVKDFVIVPLHTTPETSVKEIDELVDVYTDVRSQWKTENFIFMGDFNAGCSYVPKKAWQNIRLRTDPKFVWLIGDQEDTTVKKSTSCAYDRIVLCGQEIVNSVVPRSSGVFDFQKAYDLSEEEALDVSDHFPVEFKLQS
B5: N191K: Human D1L3 with N191K mutation, expressed as GST fusion in E. coli (protein)
chain: B2 Deoxyribonuclease gamma with N171K, C241Y

How the values were obtained:
DNA = assay: DNA-SDS zymogram of nuclease activity; assay type: biochemical
Description: (§1) Zymograms are in-gel renaturation assays performed by SDS-PAGE through a gel impregnated with 200 µg/ml DNA and ethidium bromide, eluting away SDS with repeated washes in 25 mM Tris-HCl pH 7.5, then incubating for 12-16 hours at 37° C. in 25 mM Tris-HCl pH 7.5 with 10 mM Ca^+2/Mg^+2 buffer. Activity is measured as dark “bands” of DNA digestion (Rosenthal et al., (1977) Anal. Biochem. 80, 76-90) and quantified using scanned images using NIH Image. Photographed RDA results were scanned 600 dpi Tiff images, and activity was measured as pixel area times density of traced zones of clearing (n=3 for each zone). Student's T-test was used to compare paired results. Nuclease activity ratios were obtained by comparing intra-plate results.
Prokaryotic Expression and GST Purification. Human D1L3-GST expression was performed by growing transformed BL21 Cells (Stratagene) at log phase were induced in 50 mg/ml IPTG for 5-7 hours at 32°. Bacterial pellets were lysed in 1×SDS-PAGE buffer and loaded on SDS-12% PAGE.

free DNA = assay: Radial diffusion assay (RDA) of nuclease activity against free DNA in conditioned media; assay type: biochemical; conditions: for RDA nuclease activity of conditioned media (in words): media conditioned by transfected HeLa cells
Description: (§2) Transfection Reagents and Resistance Assays. Lipofection of respective pcDNA3.1-D1 or -D3 ([…] purified with Promega Wizard Plus DNA system) was performed independently into 1-2 million HeLa cells, which produce a low background of secreted nuclease activity, when grown in DMEM with 10% FCS (LifeTech) in 6 well culture plates (Becton-Dickinson). […] Media of the transfected cells were conditioned for 36-48 hours and served as source of the respective enzymes. Nuclease activity in conditioned supernatant was measured by RDAs, zymograms and by testing activity against supercoiled pBluescript (Stratagene).
Nuclease Assays. Nuclease activity against “naked” or free DNA in CM was quantified by densitometry of RDAs. For assays of media by murine cells, RDAs were performed using conditioned media, after 36 hour incubation of equal numbers of target cell population. Each conditioned media was sampled in triplicate. RDAs for all four mice were performed on a single dish. For RDAs, 2-5 ul of conditioned supernatant was dotted on 100 mm dishes containing 2% agarose, 250 ug/ml DNA, 0.001% EtBr, 0.5% filtered milk, 10 mM Ca^+2/MgCl2; and 12.5 ug/ml kanamycin. Multiple observations were generated for every sample obtained. After 24 hours of 37° incubation, plates are photographed under UV transillumination; and scanned photos were analyzed with NIH image. For RDAs, the activity was quantified as the product of mean density and area (traced on image) of zones of clearing. For observations of serum/urine, 2-5 ul of serum were dotted on agarose plates.
as §1

HeLa cells = assay: BT assay: liposomal N1-eGFP transfection of HeLa cells in DNASE-conditioned media, GFP immunoblot; assay type: cell-based; conditions: for BT activity / GFP expression or transfection efficiency in cells exposed to undiluted conditioned media: FuGENE-6, anti-GFP immunoblot
Description: In the main assay, an eukaryotic marker such as green fluorescent protein (GFP) expression plasmid complexed with a lipid reagent is transfected into HeLa cells incubated in control media, D1L3-conditioned media, or D1-conditioned media (FIG. 4). The assay is not limited to the use of GFP as a marker, but could use any of many expressed biomarkers encoded by nucleotides that can be assayed either immunochemistry, fluorescent detection, or enzymatic detectection, and these include but are not circumscribed to luciferase, chloramphenicol acetyl-transferase, antibiotic or chemical resistance genes, Beta-galactosidase, FLAG-, myc-hemaglutinnin-, or other epitope tagged molecules, as well as other markers of gene or nucleotide transduction. The endpoint of the assay is the detection of a synthesized protein, but could easily have been the detection of a transcribed gene product, since the assay ultimately measures the ability of D1L3 added the media/milieu overlaying the cells to block the ultimate association of an expressible plasmid with the transcriptional machinery.
as §2
To test for the ability of the nucleases to block transfection, the media in individual wells of naive HeLa cells were replaced with conditioned media, and cells transfected with […] of N1-eGFP plasmid (Clontech) using various transfection reagents (FIG. 11) and their respective protocols. GFP expression by immunoblot directly correlated with transfection efficiency in present experiments. Thus, transfection efficiency was compared by densitometric analysis of GFP immunoblots.
GFP expression was also examined by fluorescent microscopy using a FITC filter. For microscopy, cells were fixed for 5 minutes in 4% paraformaldehyde dissolved into 1% PBS.
Antibody Reagents and Immunoblotting. After 24-36 hours, cells transfected with N1-eGFP were lysed in SDS-buffer and immunoblotted for expression with anti-GFP at 1:5000 dilution (Clontech). To confirm nearly equal protein loading per lane, anti-β-actin monoclonal antibody at 1:7,000 dilution (Sigma) were prepared. For immunoblots, […] protein was eletrophoretically separated by 12% SDS-PAGE gel, followed by electrotransfer to Immobilon-P membranes (Millipore) for expression studies. Immunoblotting was performed using ECL detection (Amersham).
Transfection efficiency was compared, wherever possible, by pixel densitometry of the scanned images using Scion Image 4.02 software.

| Molecule | BT activity / GFP expression or transfection efficiency in cells exposed to undiluted conditioned media (HeLa cells) | nuclease activity by zymogram (in words) (DNA) | RDA nuclease activity of conditioned media (in words) (free DNA) | further results |
| --- | --- | --- | --- | --- |
| B1 | saturated BT activity |  |  | zymogram nuclease activity relative to 89T-transfected cells (DNA; HeLa-expressed, normalized to immunoblotted D1L3 levels, n=16): 44%; decreased zymogram activity relative to protein levels (DNA; versus 89T, GST fusions and HeLa-expressed enzymes): ~50%; RDA-nuclease activity relative to the 89T enzyme (free DNA; in vitro): about half; defect in BT activity (HeLa cells; normalized to immunoblotted D3 protein levels, versus 89T, n=6): ~8 fold; GFP transfection in ten-fold diluted conditioned media (HeLa cells; ten-fold (five and ten fold) dilution of conditioned media): liposomal gene transfection is possible; also recorded: shows transfection |
| B2 | complete loss of function | complete loss of function | complete loss of function | nuclease activity by zymogram (in words) (DNA; listed as 261 C): no activity; RDA nuclease activity of conditioned media (in words) (free DNA; listed as 261 C): only faint, if any, activity; BT activity / GFP expression or transfection efficiency in cells exposed to undiluted conditioned media (HeLa cells; listed as 261 C): absence of barrier activity |
| B3 | did not differ significantly from controls; also recorded: incapable of providing a barrier to transfection | no nuclease activity above background | Nearly no clearing; also recorded: negligible background RDA activity; also recorded: no nuclease activity above background |  |
| B4 | did not differ significantly from controls; also recorded: no significant decrease |  | greater RDA activity than D3 | RDA nuclease activity of conditioned media (in words) (free DNA; listed as D3 pCT): slightly increased nuclease activity; BT activity / GFP expression or transfection efficiency in cells exposed to undiluted conditioned media (HeLa cells; listed as D3 ρCT): unaffected |
| B5 |  | no detectable nuclease activity |  |  |
